The values that follow come from US20240352105A1, “COMPOSITIONS AND METHODS FOR NEUTRALIZING ANTIGENS” (PACAGEN, INC, priority 2023, published 2024).

T1: recombinant His-tagged Der p2 (dust mite, UniProt P49278 18-146)
T1 construct: also called Der p2-His; Der p2-HIS; not shown: His tag
T1 sequence (looked up): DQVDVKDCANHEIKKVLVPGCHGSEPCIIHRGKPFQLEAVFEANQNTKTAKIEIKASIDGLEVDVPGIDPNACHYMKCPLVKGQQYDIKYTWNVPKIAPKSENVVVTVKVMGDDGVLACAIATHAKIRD

T2: recombinant His-tagged Der p1 (dust mite, UniProt P08176 99-320, limits assumed)
T2 sequence (looked up): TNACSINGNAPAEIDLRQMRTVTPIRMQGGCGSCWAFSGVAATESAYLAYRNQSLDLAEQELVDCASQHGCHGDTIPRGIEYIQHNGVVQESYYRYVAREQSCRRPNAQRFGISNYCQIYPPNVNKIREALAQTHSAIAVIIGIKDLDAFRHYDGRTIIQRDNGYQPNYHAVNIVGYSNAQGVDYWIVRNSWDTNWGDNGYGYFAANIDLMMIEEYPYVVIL

B1: SDAB22111-1-F9 (VHH)
VHH: QVQLVESGGGLVQPGGSLRLSCAASGRIFRPDGMAWYRQAPGKQREFVAGITRGGRTTYADSVKGRFTISRDNAENTVYLQMNSLKPEDTAVYYCNAKPSAWTLPRYRYDYWGQGTQVTVSS
notes: anti-Der p2 alpaca VHH; prokaryotic expression
B2: SDAB22111-1-D3 (VHH)
VHH: QLQLVESGGGLVQPGGSLRLSCVVSGRTLSGHNMGWFRQAPGKEREFVARINSNGGTTRYADAVKGRFTISRDNAKNTAYLQMNSLKSEDTAVYYCRLVGPAGYWGQGTQVTVSS
notes: as for B1
B3: SDAB22111-1-C1 (VHH)
VHH: QVQLVESGGGLVQPGGSLRLSCAASASFVGAYAMYWFRQATGKQRELVAFITSGNSTNYADSVKGRFTISRDYTKNTVYLQMNKLKPEDTAVYSCNLVTSRGDYWGQGTQVTVSS
notes: as for B1
B4: SDAB22111-1-H12 (VHH)
VHH: QVQLVESGGGLVQPGGSLRLSCAASRSIDRFPAMGWYRQAPGKKRELVAAISSANTRTKYADSVKGRFTISRDNAENTMYLQMNSLKPEDTAVYYCNVFPRPVQGYWGQGTQVTVSS
notes: as for B1
B5: SDAB22111-1-E10 (VHH)
VHH: QLQLVESGGGMVQPGGSLRLSCAASGTLFSTALMGWYRQAPGKQRTLVASITDGGSTNYVDSVKGRFTISRDNEKNTVYLQMNSLKFEDTAVYYCNAHWGSYDYWGQGTQVVVSS
notes: as for B1
B6: SDAB22111-1-F9-B03 (VHH)
VHH: EVQLVESGGGLVQPGGSLRLSCAASGRTFSSYAMGWFRQAPGKEREFVAGISRRGSNIYYADSVKGRFTISRDNAKNTVYLQMNSLKPEDTAVYYCNARHPRISTRLYWGQGTQVTVSS
notes: as for B1
B7: SDAB22111-1-B1 (VHH)
VHH: DVQLVESGGGLVQPGGSLRLSCAASGFTFALYSMRWYRQAPGKERELVAAITSGRSTNYADSVKGRFTISRDNAKNTVYLQMNSLKPEDTAVYHCNARHPIATLGNYWGQGTPVTVSS
notes: as for B1
B8: SDAB22111-1-D6 (VHH)
VHH: DVQLVESGGGLVQPGGSLRLSCVASGLTFSYYDMKWHRQAPGKERELVAAIIEGGRTMYADSVKGRFTISRDSPKKSVYLQMNNLKSEDTAVYYCNAVRARFRGLGNDDAWGQGTQVTVSS
notes: as for B1
B9: SDAB22112-2-D08 (VHH)
VHH: QVKLEESGGGLVQAGGSLRLSCVASGRTFSRWHTGWYRQAPGREREFVATLRASGGDTYYADSVKGRFTISRDNAKNTVYLQMNSLKPEDTAVYYCNVWANWGAPPSDFSSWGQGTQVTVSS
notes: anti-Can f1 alpaca VHH
B10: SDAB22112-1-C10 (VHH)
VHH: QLQLVESGGGLVQPGGSLRLSCAASGFTFSSYSMSWYRQAPGKERELVATIDTDGRTNYADSVKGRFTISRDNAKNSVYLQMNSLKPEDTAVYYCNRRQLGVDYWGQGTQVTVSS
notes: anti-Can f1 alpaca VHH
B11: SDAB22112-1-D12-3 (VHH)
VHH: QVQLVESGGGLVQPGGSLRLSCAASGFTFSNYGMSWVRQAPGKGLEWVSDVNSSGSRRFYVDSVKGRFTISRDNAKNTVFLQMNSLKPEDSAVYYCVKLAEAGTLIHVGSWGQGTRVTVSS
notes: anti-Can f1 alpaca VHH
B12: SDAB22129-55-35-46-49-1-H08 (VHH)
VHH: EVQLVESGGGLVQAGGSLTLSCGRTTSIWGMGWFRQGRGKEREFVAAITPSGSITFYSDHVKGRFTVSRDNALNTVYLQMNSLKPEDTAVYYCARRGSSGSYYWAGSYEAWGQGTQVTVSS
notes: Expressed from a prokaryotic vector
B13: SDAB22129-55-35-46-49-1-B02 (VHH)
VHH: QLQLVESGGGLVQSGGSLRLSCVAKGGTNHPYPIGWFRQAPGKEQEGVLCIASGGQTQDSAHNPNWADSVKGRFTISRDDATHTVYLEMNNLKADDTAVYFCAAPREIYIDSRCATYKYEYWGQGTQVTVSP
notes: as for B12
B14: SDAB22129-55-35-46-49-1-B12 (VHH)
VHH: QVQLVESGGGLVQAGGPLRLSCAASGRTFSSYAMGWFRQAPGKEREFVAAISWSGDSTYYADSVKGRFTLSRDNAKNTVYLQMNSLKPEDTAVYYCAVPSSGRGTYYYTLSAYEYWGQGTQVTVFS
notes: as for B12
B15: SDAB22129-55-35-46-49-1-D01 (VHH)
VHH: QVQLVESGGGLVQAGGSLRLSCAASGRTFSRYAMGWFRQAPGKEREFVAAITGSGSRTYYADSIQGRFTISRDNAKNTVYLQMNSLKPEDTAVYYCVQGWAEATMTSLGEDYDYWGQGTQVTVSS
notes: as for B12
B16: SDAB22129-55-35-46-49-1-C12 (VHH)
VHH: QVQLVESGGGLVQAGGSLRLSCAASGRTFSSYAMGWFRQAPGKEREFVAIISNTGGLTDYAHSVKGRFTISRDNAKNTGYLQMNSLKPEDTALYYCAADFLGPKSWPSYWGQGTQVTVSS
notes: as for B12
B17: SDAB22129-55-35-46-49-1-G02 (VHH)
VHH: QLQLVESGGGLVQAGGSLRLSCTASGRTFRNFGMGWFRQAPGKERKLVASISYVGGNTDYADSVKGRFTISMDNAKNTVVLQMNSLKPEDTAMYYCAARNPNRNEYPWWGQGTQVTVSS
notes: as for B12
B18: SDAB22129-55-35-46-49-1-G07 (VHH)
VHH: QVQLVESGGGLVQAGGSLRLSCAASGRTFSSYAMGWFRQAPGKERELVATISWSGGSTYYADSVKGRFTISRDNAKNTGFLQMNSLKPEDTAVYYCAADFASTVGTPLTRPAYWGQGTQVTVSS
notes: as for B12

One data set has as its target T1, recombinant His-tagged Der p2. Nature of the data set: ELISA, antigen coated.
Conditions: not given
As to the method: (§1) 2 microgram per milliliter (μg/mL) target antigen is coated in a 96-well plate and ELISA assay is performed after incubation with candidate VHHs. The binding EC50 of each clone is calculated using Prism GraphPad. The positive control antibody is involved as an internal control.
(§2) Isolated VHH clones were further validated by performing an ELISA assay as described in Example 1. Metrics of thermostability including melting temperature (Tₘ), onset temperature (Tₒₙₛₑₜ), and temperature of aggregation (Tagg), were also tested with increasing temperature in the range of 20° C.-95° C. at the speed of 1° C./min. These measurements were performed using a Nanotemper DSF. When applicable, Tₘ1 refers to the first melting point observed, Tₘ2 refers to the second melting point observed, etc., Sequence information for the VHH clones and the binding assay results are summarized in Table 3. The individual binding curves are shown for each candidate in FIGS. 3B-3I.
The EC50 is the concentration giving half of the maximal effect. Take B1: the EC50 was 4.95 µg/mL.

Consider B2, for which the EC50 came out at 8.41 µg/mL.

Consider B3, for which the EC50 came to 1.11 µg/mL.

For the molecule B4, the EC50 is 2.67 µg/mL.

With B5, the EC50 came out at 6.57 µg/mL.

Turning to B6, the 50% effective concentration (EC50) came out at 15.9 µg/mL.

Take B7: the EC50 worked out at 8.23 µg/mL.

Turning to B8, the EC50 was 9.66 µg/mL.

The target of a further data set is T3, recombinant His-tagged Can f1 (dog (Canis familiaris), UniProt O18873 19-174).
T3 construct: also called Can f1-His; recombinant Can f1; not shown: His tag
T3 sequence (O18873 19-174 limits assumed): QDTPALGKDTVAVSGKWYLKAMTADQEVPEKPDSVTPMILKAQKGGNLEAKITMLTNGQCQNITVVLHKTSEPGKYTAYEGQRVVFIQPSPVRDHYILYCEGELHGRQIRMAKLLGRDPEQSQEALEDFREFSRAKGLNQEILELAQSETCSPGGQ
The data set is described as follows: ELISA, antigen coated.
Conditions: not given
As to the method: as §1
Isolated VHH clones were further validated by performing an ELISA assay as described in Example 1. Metrics of thermostability including melting temperature (Tₘ), onset temperature (Tₒₙₛₑₜ), and temperature of aggregation (Tagg), were also tested with increasing temperature in the range of 20° C.-95° C. at the speed of 1° C./min. The individual binding curves are shown for each candidate in FIGS. 5B-5H.
Background: In an ELISA, binding on a coated surface is turned into a signal by an enzyme label.
In the case of B9, the EC50 came out at 5.84 µg/mL.

For B10, the EC50 came out at 9.4 µg/mL.

In the case of B11, the EC50 was 10.4 µg/mL.

The target of another data set is T2, recombinant His-tagged Der p1. The data set is described as follows: cell-based or functional assay.
Conditions: not given
With B12, the “Maximum Rate of Blocking” value was 92.8.

Turning to B13, the “Maximum Rate of Blocking” value stood at 75.4.

Turning to B14, the “Maximum Rate of Blocking” value was 95.4.

As to B15, the “Maximum Rate of Blocking” value came out at 73.

In the case of B16, the “Maximum Rate of Blocking” value came to 91.6.

For the molecule B17, the “Maximum Rate of Blocking” value was determined as 85.2.

Consider B18, for which the “Maximum Rate of Blocking” value came to 93.3.

Test system in the next data set: not listed separately
The data set is described as follows: Thermostability (Tm, Tonset, Tagg) by Nanotemper DSF. Format: physicochemical. Further details: key to Tm2 / Tagg / Tm1 / Tm / Tm3 / Tonset / Tonset ø (mean) / Tagg ø (mean): temperatures in °C. To be noted: anti-Der p2 VHH; 20° C.-95° C. at 1° C./min. As to the method: as §2, with “(Tm),” for “(Tₘ),”, “(Tonset),” for “(Tₒₙₛₑₜ),”, “Tm1” for “Tₘ1”, “Tm2” for “Tₘ2”
Isolated VHH clones were further validated by performing an ELISA assay as described in Example 1. Metrics of thermostability including melting temperature (Tm), onset temperature (Tonset), and temperature of aggregation (Tagg), were also tested with increasing temperature in the range of 20° C.-95° C. at the speed of 1° C./min. The individual binding curves are shown for each candidate in FIGS. 5B-5H.
Isolated VHH clones were further validated by performing an ELISA assay as described in Example 1. Metrics of thermostability including melting temperature (Tm), onset temperature (Tonset), and temperature of aggregation (Tagg), were also tested with increasing temperature in the range of 20° C.-95° C. at the speed of 1° C./min. The individual binding curves are shown for each candidate in FIGS. 7B-7P.
The detailed thermostability graphs used to determine the Tm, Tonset, and Tagg are illustrated in FIGS. 19A-19I and raw data is summarized in Table 23. Any subsequent melting points observed (Tm1, Tm2, Tm3, etc.) are separated by commas.
B2 registered a Tagg of 42.45.

B3 gave a Tagg of 43.53.

B4 registered a Tagg of 43.37.

Take B6: the Tagg is recorded as 40.04.

As to B8, the Tagg is listed as 41.57.

Still in this data set, the particulars now being: anti-Der p2 VHH; first melting point observed; in °C (unit assumed).
For the molecule B2, the Tm1 was determined as 53.78.

For the molecule B3, the Tm1 is 54.52.

As to B4, the Tm1 came to 51.93.

Consider B8, for which the Tm1 is 49.02.

The same data set, now with this note: anti-Der p2 VHH; second melting point observed; in °C (unit assumed).
As for B2, the Tm2 was 69.76.

Consider B3, for which the Tm2 is on record as 66.51.

With B4, the Tm2 came out at 59.13.

On to B8, for which the Tm2 is 62.55.

Staying with this data set, now noted: anti-Der p2 VHH; single melting point; in °C (unit assumed).
For B6, the Tm is listed as 71.38.

Staying with this data set, now noted: anti-Der p2 VHH; third melting point; in °C (unit assumed).
Consider B4, for which the Tm3 stood at 68.62.

A further data set has as its target T2, recombinant His-tagged Der p1. Nature of the data set: ELISA, antigen coated on plate.
Conditions: not given
As to the method: as §1
Isolated VHH clones were further validated by performing an ELISA assay as described in Example 1. The individual binding curves are shown for each candidate in FIGS. 9A-9K.
Consider B12, for which the concentration giving a half-maximal response (EC50) is 16.5 µg/mL.

B13: the EC50 was found to be 0.0193 µg/mL.

As for B14, the EC50 came out at 1.77 µg/mL.

For B15, the EC50 was 0.0147 µg/mL.

Regarding B16, the EC50 was determined as 4.95 µg/mL.

For B17, the EC50 came to 4.21 µg/mL.

B18: the EC50 came out at 0.485 µg/mL.
